We go through 9 molecules from publication PMC10119399, “Insights to improve the activity of glycosyl phosphorylases from Ruminococcus albus 8 with cello-oligosaccharides” (Frontiers in Chemistry, 2023).

In data set [1] the test system is T1, RalCDP-CBM37.
T1 construct: CBM37 of R. albus 8 Cel5G fused by glycine linker (Gly X9) to C-terminus of full-length RalCDP in one polypeptide; His-tag kept; E. coli BL21 (DE3); homodimer
As to the kind of experiment: arsenolysis, glucose release, glucose oxidase-peroxidase, Michaelis-Menten fit. The settings on record: phosphorolysis direction measured as arsenolysis; arsenate as co-substrate; 50 mM sodium acetate pH 6.0, 45°C; read-out: K M (mM) (mg/mL). It is filed as biochemical, Hominimerdicola alba.

Data set [2] concerns the target Ral∆N63CDP-CBM37, Ral∆N63CDP fused at its C-terminus to CBM37 of R. albus 8 Cel5G by a glycine linker (Ruminococcus albus 8). In words: SEC; Superdex 200 10/300 in Buffer G (50 mM HEPES-NaOH pH 8.0, 100 mM NaCl, 0.1 mM EDTA); native mass from a calibration curve of standard proteins. A general note: Size exclusion chromatography separates by hydrodynamic size, large species first.

Data set [3] addresses Ruminococcus albus 8 cellobiose phosphorylase (RalCBP) (Ruminococcus albus 8). The data set is described as above.
In data set [4] the target is RalCDP-CBM37, RalCDP fused at its C-terminus to CBM37 of R. albus 8 Cel5G by a glycine linker (Ruminococcus albus 8). The data set is described as above.
The subject of data set [5] is T1, RalCDP-CBM37. As to the kind of experiment: glucose release, glucose oxidase-peroxidase, Michaelis-Menten fit. The note with it: phosphorolysis direction; Pi as co-substrate; 50 mM sodium acetate pH 6.0, 45°C; read-out: K M (mM) (mg/mL). In kind it is biochemical, Hominimerdicola alba.
The target in data set [6] is Ruminococcus albus 8 cellodextrin phosphorylase (RalCDP) (Ruminococcus albus 8). In words: SEC; Superdex 200 10/300 in Buffer G (50 mM HEPES-NaOH pH 8.0, 100 mM NaCl, 0.1 mM EDTA); native mass from a calibration curve of standard proteins.
Substrate in the data set “purified protein”: O=P(O)(O)O
In words: purified protein. The note with it: phosphorolysis direction, co-substrate cellobiose, 50 mM sodium acetate pH 6.0, 45°C.

Substrate in data set [7]: O=P(O)(O)O[C@H]1O[C@H](CO)[C@@H](O)[C@H](O)[C@H]1O
In words: Pi release, Malachite Green, Michaelis-Menten fit. In kind it is biochemical, Hominimerdicola alba. The note with it: synthesis direction (donor), co-substrate glucose, 100 mM sodium acetate pH 6.0, 45°C. The source says: Pi release, Malachite Green, Michaelis-Menten fit on RalCBP

For `OC[C@H]1O[C@@H](O[C@H]2[C@H](O)[C@@H](O)[C@H](O[C@H]3[C@H](O)[C@@H](O)[C@H](O[C@H]4[C@H](O)[C@@H](O)[C@H](O[C@H]5[C@H](O)[C@@H](O)C(O)O[C@@H]5CO)O[C@@H]4CO)O[C@@H]3CO)O[C@@H]2CO)[C@H](O)[C@@H](O)[C@@H]1O` (some centres unmarked) [Cellopentaose], in the data set on RalCDP-CBM37 [1], the Km is 0.14 ± 0.03 mM. What is called stoichiometry N is the number of molecules, sites or subunits per partner or assembly. Molecule “Ral∆N63CDP-CBM37, Ral∆N63CDP fused at its C-terminus to CBM37 of R. albus 8 Cel5G by a glycine linker (enzyme)” registered a stoichiometry N in data set [2] of 5. In data set [3], “Ruminococcus albus 8 cellobiose phosphorylase (RalCBP) (enzyme)” yielded a stoichiometry N of 2. “RalCDP-CBM37, RalCDP fused at its C-terminus to CBM37 of R. albus 8 Cel5G by a glycine linker (enzyme)” had a stoichiometry N in data set [4] of 2.

Turning to `OC[C@H]1O[C@@H](O[C@H]2[C@H](O)[C@@H](O)[C@H](O[C@H]3[C@H](O)[C@@H](O)C(O)O[C@@H]3CO)O[C@@H]2CO)[C@H](O)[C@@H](O)[C@@H]1O` (some centres unmarked) [Cellotriose], the Km in the data set with RalCDP-CBM37 [1] is 2.2 ± 0.3 mM. Turning to `OC[C@H]1O[C@@H](O[C@H]2[C@H](O)[C@@H](O)C(O)O[C@@H]2CO)[C@H](O)[C@@H](O)[C@@H]1O` (some centres unmarked) [Cellobiose], the Km with RalCDP-CBM37 [5] was determined as 11 ± 2 mM.

“Ruminococcus albus 8 cellodextrin phosphorylase (RalCDP) (enzyme)” yielded a stoichiometry N in data set [6] of 2. On to `OC[C@H]1O[C@@H](O[C@H]2[C@H](O)[C@@H](O)[C@H](O[C@H]3[C@H](O)[C@@H](O)[C@H](O[C@H]4[C@H](O)[C@@H](O)C(O)O[C@@H]4CO)O[C@@H]3CO)O[C@@H]2CO)[C@H](O)[C@@H](O)[C@@H]1O` (some centres unmarked) [Cellotetraose], for which the Km in the data set on RalCDP-CBM37 [1] is 0.24 ± 0.06 mM.

B1: RalCBP (Hominimerdicola alba 8) (protein)
chain: MKFGFFDDANKEYVITEPRTPYPWINYLGSQAFFSLISNTAGGYSFYKDARLRRITRYRYNNVPIDMGGRYFYINDNGTVWNPGWSPVKTELDAYTCRHGMGYTIIKGEKNGLEAEVTFFVPNNYNGEVQKVVLTNKSGAEKTFKLFSFAEWCLWDAQDDCTNFQRNFSTGRVEVDGSVIYHKTEYRDRRDHYAFYSVNDSIDGYDTDRDSFIGLYNGFNDPQAVMAGKANDSFADGWSPIASHYKEIKLGAGESKTLIFILGYVEMPVDQKFEADGKTINKVKAKAMMEQFDTPEKVDAGLAELKASWDKLLGILNVDTPDDKVDRMVNIWNQYQCMVTFNLSRSASYFESGIGRGMGFRDSNQDILGFVHQIPDRARERIIDIASTQLPDGGCYHQYQPLTKKGNSDIGGDFSDDPLWMILSVSAYIKETGDWGILDEMVPYDNDESKAQPMLDHLKVSFYHIVNNLGPHGLPLAMRADWNDCINLSCYSDTPGESFQTYTNPKFAAEGGYSKVAESVMVATLFTYTGPNYVAILKHLGKDDEAAAAQAEIDKMKKNVMASAWDGDWFLRAYDSEGKKMGSKECEEGQIFIEPQGFAIMSEIGKEQGADKKTLAAIDERLNTKFGLVLNNPAFTKYYIQYGEISTYPGGYKENAGIFTHNNAWIICAAAYAGQGDQAFKYYSEIAPAFTEETSDIHKTEPYVYGQMIGGKDAGSDIGRPGKNFGQGKNSWLTGTAAWNMVAISQYILGVQPDFDGLKIDPSIPAAWDGFNITRKFRGNTYNIAVKNPDHVCKGIKSVTVDGKKIDGIVMPVFEAGSVHEVEVVMG
notes: full length, His6-tag kept (methods: N-terminus; results: C-terminal), codon-optimized, E. coli BL21 (DE3); homodimer 180 kDa
A word on the kcat: it is the maximal rate divided by the concentration of active sites. In general, kcat/Km refers to the turnover number divided by the Michaelis constant. As to B1, in “purified protein”, the Km was found to be 580 ± 20 µM, the kcat was determined as 284 s⁻¹ and the kcat/Km was found to be 490000 M⁻¹ s⁻¹. Besides, in data set [7], the Km was determined as 2000 ± 200 µM, the kcat was 178 ± 2 s⁻¹ and the kcat/Km was determined as 89000 M⁻¹ s⁻¹.
